Tests used:
[1] = molecular target: T1, His6-TyrR (Enterobacter cloacae UW5?) (UniProt B2D1S2); assay: EMSA; details: 20% glycerol, 250 mM NaCl, 50 mM Tris-Cl pH 7.5, 5 mM MgCl2, 2.5 mM DTT, 2.5 mM EDTA, 0.1 mM ATP, 0.1 mM Trp, Phe or Tyr, 1 ug poly d(I-C), 50 ng DNA, room …
T1 sequence: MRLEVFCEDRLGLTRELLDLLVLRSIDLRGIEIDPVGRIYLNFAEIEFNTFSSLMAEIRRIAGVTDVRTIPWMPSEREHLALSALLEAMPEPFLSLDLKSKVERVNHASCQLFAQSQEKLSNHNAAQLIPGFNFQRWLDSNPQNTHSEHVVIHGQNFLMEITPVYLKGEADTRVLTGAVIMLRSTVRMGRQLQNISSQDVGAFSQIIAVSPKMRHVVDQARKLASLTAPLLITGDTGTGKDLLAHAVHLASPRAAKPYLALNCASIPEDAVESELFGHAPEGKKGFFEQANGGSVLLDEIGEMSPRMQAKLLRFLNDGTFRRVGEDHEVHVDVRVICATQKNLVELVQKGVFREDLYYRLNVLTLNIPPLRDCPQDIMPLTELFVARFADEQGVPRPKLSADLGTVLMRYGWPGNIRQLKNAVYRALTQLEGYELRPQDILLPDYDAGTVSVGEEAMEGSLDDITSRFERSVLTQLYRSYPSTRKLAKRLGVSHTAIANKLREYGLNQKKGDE

[2] = molecular target: T1, His6-TyrR (Enterobacter cloacae UW5?); assay: competition; details: 20% glycerol, 250 mM NaCl, 50 mM Tris-Cl pH 7.5, 5 mM MgCl2, 2.5 mM DTT, 2.5 mM EDTA, 0.1 mM ATP, 0.1 mM Trp, Phe or Tyr, 1 ug poly d(I-C), 50 ng DNA, room …

| Sequence | binding [1] | binding [2] |
| --- | --- | --- |
| GGTTCGCATAACAGGTGTCCTTCTGACGTTGACCTCACTTTGAGTATTAAAGAAGCGTGATGGCTGTCCAGAATTGGTCGTAAGAAGGGCATAGAAAGAATGCTTTATAAAAAAGGCTGCGCTATGCTCTTTTTTTTCATATAAATATAAACGTATATACTGATTTTTCCTTTCAGCGCCAGAGGGCATCAGAATGGG (double strand) [akr-ipdC double weak and strong box mutant] | no binding | – |
| GGTTCGCATAACAGGTGTCCTTCTGACGTTGACCTCACTTTGAGTATTAAAGAAGCGTGATGGCTGTCCAGAATTGGTCGTAAGAAGGGCATGGAAAGAATGCTTTACAAAAAAGGCTGCGCTATGCTCTTTTTTTTCATGTAAATGTAAACGTATACACTGATTTTTCCTTTCAGCGCCAGAGGGCATCAGAATGGG (double strand) [akr-ipdC intergenic region wild-type] | binds | binds |
| GGTTCGCATAACAGGTGTCCTTCTGACGTTGACCTCACTTTGAGTATTAAAGAAGCGTGATGGCTGTCCAGAATTGGTCGTAAGAAGGGCATGGAAAGAATGCTTTACAAAAAAGGCTGCGCTATGCTCTTTTTTTTCATATAAATATAAACGTATATACTGATTTTTCCTTTCAGCGCCAGAGGGCATCAGAATGGG (double strand) [akr-ipdC weak box mutant] | binds | – |
| GGTTCGCATAACAGGTGTCCTTCTGACGTTGACCTCACTTTGAGTATTAAAGAAGCGTGATGGCTGTCCAGAATTGGTCGTAAGAAGGGCATAGAAAGAATGCTTTATAAAAAAGGCTGCGCTATGCTCTTTTTTTTCATGTAAATGTAAACGTATACACTGATTTTTCCTTTCAGCGCCAGAGGGCATCAGAATGGG (double strand) [akr-ipdC strong box mutant] | binds more weakly | – |
